The supplement of paper PMC11246515
± gives the standard deviation of the averaged measurements.

Experiment: total protein half-life in vivo (active degradation + dilution); higher = more stable protein
[1] = E. coli NCM3722 delta-clpP delta-lon delta-hslV, growth: N-lim chemostat, doubling time 6 h
[2] = E. coli NCM3722 delta-clpP, growth: N-lim chemostat, doubling time 6 h
[3] = E. coli NCM3722 delta-hslV, growth: N-lim chemostat, doubling time 6 h
[4] = E. coli NCM3722 delta-lon, growth: N-lim chemostat, doubling time 6 h
[5] = E. coli NCM3722 delta-smpB, growth: N-lim chemostat, doubling time 6 h
[6] = wild type E. coli NCM3722, growth: C-lim chemostat, doubling time 3 h
[7] = wild type E. coli NCM3722, growth: C-lim chemostat, doubling time 6 h
[8] = wild type E. coli NCM3722, growth: C-lim chemostat, doubling time 12 h
[9] = wild type E. coli NCM3722, growth: N-lim chemostat, doubling time 6 h
[10] = wild type E. coli NCM3722, growth: N-lim chemostat, doubling time 12 h
[11] = wild type E. coli NCM3722, growth: P-lim chemostat, doubling time 6 h
[12] = wild type E. coli NCM3722, growth: P-lim chemostat, doubling time 12 h

Row | Sequence | total protein half-life in vivo [1] | total protein half-life in vivo [2] | total protein half-life in vivo [3] | total protein half-life in vivo [4] | total protein half-life in vivo [5] | total protein half-life in vivo [6] | total protein half-life in vivo [7] | total protein half-life in vivo [8] | total protein half-life in vivo [9] | total protein half-life in vivo [10] | total protein half-life in vivo [11] | total protein half-life in vivo [12]
1 | MAGLPNSSNALQQWHHLFEAEGTKRSPQAQQHLQQLLRTGLPTRKHENWKYTPLEGLINSQFVSIAGEISPQQRDALALTLDSVRLVFVDGRYVPALSDATEGSGYEVSINDDRQGLPDAIQAEVFLHLTESLAQSVTHIAVKRGQRPAKPLLLMHITQGVAGEEVNTAHYRHHLDLAEGAEATVIEHFVSLNDARHFTGARFTINVAANAHLQHIKLAFENPLSHHFAHNDLLLAEDATAFSHSFLLGGAVLRHNTSTQLNGENSTLRINSLAMPVKNEVCDTRTWLEHNKGFCNSRQLHKTIVSDKGRAVFNGLINVAQHAIKTDGQMTNNNLLMGKLAEVDTKPQLEIYADDVKCSHGATVGRIDDEQIFYLRSRGINQQDAQQMIIYAFAAELTEALRDEGLKQQVLARIGQRLPGGAR | 4.76 ± 0.4 h | 3.22 ± 0.11 h | 2.1 ± 0.063 h | 3.45 ± 1.1 h | 1.99 ± 0.24 h | 2.2 ± 0.22 h | 3.91 ± 0.52 h | 5.81 ± 0.08 h | 2.37 ± 0.38 h | 2.817 ± 0.0043 h | 3.2 ± 0.23 h | 6.04 ± 0.41 h
2 | MAGNVQEKQLRWYNIALMSFITVWGFGNVVNNYANQGLVVVFSWVFIFALYFTPYALIVGQLGSTFKDGKGGVSTWIKHTMGPGLAYLAAWTYWVVHIPYLAQKPQAILIALGWAMKGDGSLIKEYSVVALQGLTLVLFIFFMWVASRGMKSLKIVGSVAGIAMFVMSLLYVAMAVTAPAITEVHIATTNITWETFIPHIDFTYITTISMLVFAVGGAEKISPYVNQTRNPGKEFPKGMLCLAVMVAVCAILGSLAMGMMFDSRNIPDDLMTNGQYYAFQKLGEYYNMGNTLMVIYAIANTLGQVAALVFSIDAPLKVLLGDADSKYIPASLCRTNASGTPVNGYFLTLVLVAILIMLPTLGIGDMNNLYKWLLNLNSVVMPLRYLWVFVAFIAVVRLAQKYKPEYVFIRNKPLAMTVGIWCFAFTAFACLTGIFPKMEAFTAEWTFQLALNVATPFVLVGLGLIFPLLARKANSK |  |  |  |  |  |  | 6.93 h |  |  |  |  | 
3 | MAHIVTLNTPSREDWLTQLADVVTDPDELLRLLNIDAEEKLLAGRSAKKLFALRVPRSFIDRMEKGNPDDPLLRQVLTSQDEFVIAPGFSTDPLEEQHSVVPGLLHKYHNRALLLVKGGCAVNCRYCFRRHFPYAENQGNKRNWQTALEYVAAHPELDEMIFSGGDPLMAKDHELDWLLTQLEAIPHIKRLRIHSRLPIVIPARITEALVECFARSTLQILLVNHINHANEVDETFRQAMAKLRRVGVTLLNQSVLLRDVNDNAQTLANLSNALFDAGVMPYYLHVLDKVQGAAHFMVSDDEARQIMRELLTLVSGYLVPKLAREIGGEPSKTPLDLQLRQQ | 5.05 ± 0.77 h | 2.63 ± 0.045 h | 1.02 ± 0.14 h | 1.61 ± 0.14 h | 1.33 h | 1.41 ± 0.071 h | 1.57 ± 0.15 h | 3.35 ± 1.6 h | 1.58 ± 0.58 h | 2.05 h | 1.51 ± 0.33 h | 2.71 ± 0.88 h
4 | MAIDENKQKALAAALGQIEKQFGKGSIMRLGEDRSMDVETISTGSLSLDIALGAGGLPMGRIVEIYGPESSGKTTLTLQVIAAAQREGKTCAFIDAEHALDPIYARKLGVDIDNLLCSQPDTGEQALEICDALARSGAVDVIVVDSVAALTPKAEIEGEIGDSHMGLAARMMSQAMRKLAGNLKQSNTLLIFINQIRMKIGVMFGNPETTTGGNALKFYASVRLDIRRIGAVKEGENVVGSETRVKVVKNKIAAPFKQAEFQILYGEGINFYGELVDLGVKEKLIEKAGAWYSYKGEKIGQGKANATAWLKDNPETAKEIEKKVRELLLSNPNSTPDFSVDDSEGVAETNEDF [P0A7G6] | 6.6 ± 1 h | 5.85 ± 0.55 h | 3.37 ± 0.057 h | 3.272 ± 0.025 h | 3.32 ± 0.036 h | 2.86 ± 0.031 h | 4.82 ± 0.084 h | 11.7 ± 4.1 h | 3.4281 ± 0.0021 h | 4.94 ± 0.44 h | 4.77 ± 0.2 h | 9.63 ± 0.48 h
5 | MAIEIKVPDIGADEVEITEILVKVGDKVEAEQSLITVEGDKASMEVPSPQAGIVKEIKVSVGDKTQTGALIMIFDSADGAADAAPAQAEEKKEAAPAAAPAAAAAKDVNVPDIGSDEVEVTEILVKVGDKVEAEQSLITVEGDKASMEVPAPFAGTVKEIKVNVGDKVSTGSLIMVFEVAGEAGAAAPAAKQEAAPAAAPAPAAGVKEVNVPDIGGDEVEVTEVMVKVGDKVAAEQSLITVEGDKASMEVPAPFAGVVKELKVNVGDKVKTGSLIMIFEVEGAAPAAAPAKQEAAAPAPAAKAEAPAAAPAAKAEGKSEFAENDAYVHATPLIRRLAREFGVNLAKVKGTGRKGRILREDVQAYVKEAIKRAEAAPAATGGGIPGMLPWPKVDFSKFGEIEEVELGRIQKISGANLSRNWVMIPHVTHFDKTDITELEAFRKQQNEEAAKRKLDVKITPVVFIMKAVAAALEQMPRFNSSLSEDGQRLTLKKYINIGVAVDTPNGLVVPVFKDVNKKGIIELSRELMTISKKARDGKLTAGEMQGGCFTISSIGGLGTTHFAPIVNAPEVAILGVSKSAMEPVWNGKEFVPRLMLPISLSFDHRVIDGADGARFITIINNTLSDIRRLVM | 6.49 ± 0.23 h | 6.08 ± 0.4 h | 6.48 ± 0.081 h | 6.36 ± 0.067 h | 5.78 ± 0.37 h | 3.08 ± 0.092 h | 5.778 ± 0.018 h | 10.6 ± 0.66 h | 6.19 ± 0.27 h | 12.3 ± 0.84 h | 6.07 ± 0.26 h | 12.5 ± 0.53 h
6 | MAIILGIDPGSRVTGYGVIRQVGRQLSYLGSGCIRTKVDDLPSRLKLIYAGVTEIITQFQPDYFAIEQVFMAKNADSALKLGQARGVAIVAAVNQELPVFEYAARQVKQTVVGIGSAEKSQVQHMVRTLLKLPANPQADAADALAIAITHCHVSQNAMQMSESRLNLARGRLR [P0A814] | 4.93 ± 0.29 h | 3.57 ± 0.066 h | 3.29 ± 0.05 h | 3.46 ± 0.7 h | 4.18 ± 1.7 h | 2.26 ± 0.1 h | 4.34 ± 0.17 h | 6.6 ± 0.2 h | 3.56 ± 0.17 h | 5.21 ± 0.39 h |  | 6.3836 ± 0.0059 h
7 | MAILGLGTDIVEIARIEAVIARSGDRLARRVLSDNEWAIWKTHHQPVRFLAKRFAVKEAAAKAFGTGIRNGLAFNQFEVFNDELGKPRLRLWGEALKLAEKLGVANMHVTLADERHYACATVIIES | 5.28 ± 0.087 h |  |  | 5.71 ± 0.46 h | 5.093 ± 0.018 h | 2.85 ± 0.081 h | 5.87 ± 0.26 h | 12.9 ± 2.6 h | 5.35 ± 0.61 h | 11.2 ± 1.1 h | 5.72 ± 0.41 h | 11.5 ± 0.7 h
